# Reference: a protein production outcome set (Wang et al. 2014)
# Assay: label from the status in PepcDB records
row,Sequence,protein production
1,MITVNFLILLLGLVFLVKGSDYFVKSASTIAKKLGVSEFVIGLTLVAIGTSIPELASSIAASIQQASGIVIGNVVGSNIANVGLIVGVAALLSPMKTEIDMLKRDGYIMLFSAVLFFVFAFNRELSMLEAGLFVLLYIAYVFFLFEEAEKYEGKLHFKEFITYFFKFKYINSAMQKLNGNRNRNSDSDRNSDSGNGNERLEGGFAKDIFTLVLSCAAIVIGAKYFVEESIFFAELLGIPDTVIGTTLVAVGTSLPELVVTVSAARQGYGSIALGNVIGSNITNIFLILGLSGLFYPLSVAEMSLFFTTPVMIAISLILLIFISTGWEIKRWEGVVLMMFYVAFLVVLFYI,failed
2,MKVELTAIEARVIGCLIEKEVTTPDQYPLSLNALTNASNQKSNREPVMALSESDVLDAVDALIERRLVSDESAFNSRVSKYQHRFCNTEFGDLKLSEQEKGIICCMLLRGAQTPGEIRTRTNRLATFHDVKEVEAVLEHLASEEKGPLVVKLPREAGKRESRYMHLFCGEVDVSAMAAAVPATSSSSVRIAQLEQEVAELREELDALKAQVESLLS,not failed
3,MTPVQLKNYLEQLVGNQIKTSTMIWGPPGIGKSSIVAQIAEEGKLRFIDLRLSQLAPTDLRGLPVAIPTSKTKPQTGTSAWYPPEFLPKDGAGILFLDELNMAPPAMQGVAQQLILDRRVGSYEVPTDWFIWAAGNRKEDRASVFEMPAPLANRFLHLDVQPDFESFKQYALEQKYHEQVIAFLSFRPGLIHKLDLQRPAWPSPRSWAIANGLHQVNLDVSPAVGEGCAAEFSAFVQLYKDLPDLEAIFRGQGQNIGFPTEPSSGYASTIGLAVRAKDATAGVNAFHWLTDKADSEWVQLFVTDMAGQLRRAGHLGALSIMAKKEPKLKQFMQGYQELLAILEHHHHHH,not failed
4,MSSNASTEKQHAGGEKTVKAEPQSTSSQKDSTDDYQPNSQVTDDRTLHKVGQTFSDDKGKAVLKDIKQVNKTYKIGDVELTVKEMKLIHLRPDYSMIDYFHELTHDEEFDFVKVFVDIKNTSTKKVNVAPIALMKTNTGETFDWNKDIYLEELNGELEGGAEKSGNLGFIVNASSGHAHDKAADAEKKTKEIKWIEITTSDVFDHNHKKISDAQKIKIKFLEHHHHHH,not failed
5,MAEATSALRKPVFTKVNELRPGTNGHSLNVKVVNTKMVMQRGGGRPMGPQSRQMRIAECLVGDETGIIIFTARNDQVDMMKEGSVVTLRNAKIDMYKGSMRLAVDRWGRVEVAEEPTDITVKDDNNLSLIEYELVSVET,failed
6,MKRLIVSSSVVLFMFLCSITITSAENNSVKVAFIRHHNLWIKVDGKEIQITKGEYITGPKWSYDGEWLAYVKGKKQSILELYRLKDGKKVTPFHSEASNYQWSPTENIIAFIFTGTLNTFDVEKKNADFENVSAGVGDYAWYPDGKNFLVSSEAHLLPTGWTGAQLYEVQKDAHMNPHKMKHLYALPNEHDDFLALVASGFKWSPDQKWISFLAVPTASWSADSNTLCLVRADGSRFEKVDQMLLNAQWFQWAPSKNILAYIEGSGRVALENKHLKVKELPALQQNIFTPKGYVDWDFVWKNDRVIIVSRAKEAGIETPPEKRPLPSLYEVDSTSNAQHQITKKTNKQGDYHPIFMKKSNQLIWIRSDRKKADVWLAHKDRKQEKKWIENIDVPAWYYEKWNWGNVISVKEE,failed
7,MKIAALYDIHGNYPALKEVLKQVKKLSPDLVVLGGDLIAGPMPLETLSLLKHVSTTFKTVGIMGNNDQDIVDIYAKKRVGLSRKATEQLTWIANQLSYKQVSFLRNLLPSISIGNYFFCHAVKNDNTTVFSPQQNKAYIETLFKGVQESYIICGHTHIQFELSLPNKKIINAGSIGMPFSNQFGAQWLWLDDNRIEYKRTIFNQQAAIQLISQTEYPFKNEFLEHHHHHH,failed
8,MIKLKNDRLEVEIDNMGAQLTHVIGNESGYDYIWNGDAWKKHAPILFPAIGKSNNDEYVVDGKTYRMPQHGFARDFDWQKVNQAENRVMLELKSNAKTKEMFPFDFTLQVEYKLDQNQLLIGYRVINNDQRMMPYALGSHPAFNLPIDDDGVFEDYRLTFGPKQKQIKRLGVGPIPFRDGTEAPYPSIQASELALNHEMFDDGLIILNAKKLENVTLHSNQTAHEVKLNIKQFPYLTLWAMEHETQPFICIEPFAGLPDQASDQPTDWNNKKGNNLLEAGESHTFEYGIEFK,failed
9,MSNSKWWFLLVCFIPAITFASEGGEHSDPVTSVLLGVTTILFLAIIGRYLARLLNQPGVLGELLIGMIVGNLSYFFGSELVVILREGSAIYDVVKEMLAGISLNQAVTHVIHNSYYANQVIHALSGAEGTEYLKIAYVVDIFSRYGVIFLLFMVGLETSLSDLKKTGKESILVAVIGIVAPMILGFVVACFIIPNSNYKINLFIGATLSATSIGITASVLKEMNKLSTREARTILGAATLDDILGLIILAVVSSIVISGAVSIMVVMKIIILALLFFIGTLFMGPFVLRKAVDLFRFLEPWESKLFISFLFIMALAWLASFIQLAAIIGAFAAGVILHDDYFGEQKAHHKDHRSIHHLVSPLETILAPMFFTLIGIQVKLETFYDWNVIVLAGGLSVAAILGKLLSGLGANRRDDRLLIGIGMLPRGEVGLVFASIGRTIGVISDNLFTAIVLMIMITTFIAPPLLKMRYAKPKEDRNA,failed
10,FLVTPEGRRIAYRLTDGEGPAVVFCGGFKSDMEGTKALHLQAWAERTGRAFLRFDYSGHGQSEGAFLDGSIGDWFEDARAVCGLLAGPLLLVGSSMGGWISLLLAREMGARVAGLVGIAAAPDFTEDSMWGGFNAAQREALQRAGQVILPSDYSEEPYIITRRLIEEGRRRLVLRDPLELGFPVRLLQGTADVDVPPSVALRLLDHATGPDIRLTLVKGADHRFSTPECLRMIEQAVEELL,failed
11,KKYSYAVTTCIKHINKNVYDGISLNELANHLEITPTYLSKLFKKEMGITLSEYIQRERVEEAKKLLTLTTYSLSDICAWLNFNDQSYFIRVFKKITSMTPRQYREKYTV,failed
12,MSTDLAEQPFKFDDVFMQYYPCIYNFIRWLIQDEDCAQDLAQETFLRAFVNLGTRSEHNLSPWLHTIARNLCHDYWRKNKRRGGRELLLQDAFECEDESSKPLAAIENKETAKQIYKILNLLKSEQRTALLLREIEGLSYDDAARVMGISVSAYTSLLNRARNKFIKLIMTPYTKINKGLFTPKEYTVLYRWFGIDAWPEDPEQEIVHKAKHYFDNSALSFDEFRNSLYPFHLDQAILNRVLNKDPQIIGDFGSGTGQFTLKAASSVNLEKTYAFDISPKMVDFSQQRFKREGLRHIQCLPADLNSIPLESETLDIGYCLVVLHHLYDPGKAIKEMTRTLKPGGQLIIGDFGSHNYNLFTKNNKDLWSGFSPDQMTKWFNEAGLENIDIREEKDCIFKSTTQAGELVKIPLLMSSGIKRA,failed
13,MTKFSIIIPTRERVGTLLYTLPACLRVERDDIEFVVCDNYSQDGTADYLKSIQDHRVRIYRTNQRLSMKDNFEHGLARAQGEYICFMGDDDLIIPSLFPLVEKELENVETVCWNRWVYYWPDSYESPNMLIVNNNNFSVILSSSRALDFALRYFLNYQNLPSLYNSFTHRKIVQRVINYNCLNLETEKFYPQDAISPDVFSALQILKFTNSFAHIGLPLTVSGISSSSNGAGVRNNSEESKKFIQELKVEKLSDLLHVSLSALLTQKISYYITNLSDYISFIINYIPETLQEDIFLDLIASGCRTLFDIGDIDADTATQFMAGYDISPWVVNGRLNLMDQGFYTLFRVPMFNRVVINGDEHSLSNSLNASVFLDDYFSSLIY,failed
14,MSAEATPESTLPGTAAETSPDNPWPLQLLSRKLKAHIERAPAAWIEGQVIELNRRGGNAFLTLRDVDAEISLPASVWSTVLDRQKVPLERGSRVVALVKADFWVKTGRLNMSVKDIRPVGLGDLLARIERLRQALAAEGLFADSRKRKLPLLPHRIGLITGRESDAKKDVMRNAALRWPAVEFDVREVAVQGNTAVSQIIAALKRLDADPHVDVIVLARGGGALEDLLPFSNEDLIRAVSAATTPVVSAIGHEADRPILDDVADLRASTPTDAAKRIVPDVAEELAMVRQARDHLRRSISRMVDRETDRLHALRSRPVLASPASMVDARSEDIHRLQRRTHSAVSTAVVRALDQVHHLRAQVRALSPQKTLDRGYAVVQLVGEDQAGHHVVSSPDEAPDGTPLSIRVAEGRFRAVSAGAGQLVEH,failed
15,MAIDAFALILAMLGLGLLFARLRVLPDNSADVLNRIVLYICLPASVLTYVPRLHLDASLGGVIATPWLLTAIIVPLLWGCSRLLRFGRAEYAALLMCVVFTNSSFIGFPMVRALIGDHALPYAVVYDQFGTFVLLSTFGLYVLARYSGDTPPTARLIVMRVLQFPPLWALLFALTLMPGQPPAWIGSGLKNLADAMLPLVMLSVGFSLQLRLPADELKPLAVGLVFKLLLMPVLALPLSWVLGLRGQMLQTNVLESAMPTMITAAALAISHRLAPRLAAAMVGYSILLSLLTLPAWAWLLARLVA,failed
